Data from publication PMC9060481 (2022).
“And” between values parts separate entries of the source, which are not always exact repeats. Equal entries are not always repeated. One block for each binder: values may come before it.

Tests used:
[1] = target: T1, calmodulin 2 (CaM2), purified recombinant protein (M. truncatula); test: BLI; 20 mM CaCl2
[2] = target: T1, calmodulin 2 (CaM2), purified …; test: BLI; 20 mM CaCl2; remark: listed apart in the source
[3] = target: T1, calmodulin 2 (CaM2), purified …; test: ITC; 5 mM CaCl2

Binder: AACFIQAAWRRHKKRKEA [CNGC15c-IQ peptide]
Kd [3]: 0.644 µM and 0.64 µM

Binder: AACFIQVAWRRTIQEKKG [CNGC15b-IQ peptide]
Kd [3]: 1.39 µM

Further lines, results first:

koff [1]: 0.43 s⁻¹
Kd [2]: 59 µM
B1: His6-MBP:CtermCNGC15b (domain or fragment)
chain: GNMQTYLQSTTVRLEEWRVKRTDTEQWMHHRQLPQELRQSVRKYDQYKWIATRGVDEESLLRGLPLDLRRDIKRHLCLELVRRVPLFDAMDERMLDAICERLKPALCTENTYLVREGDPVNEMLFIIRGNLDSYTTDGGRTGFFNSCRIGPGDFCGEELLTWALDPRPTMVIPSSTRTVKAISEVEAFALIAEDLKFVASQFRRLHSKQLRNKLRFHSHQWRTWAACFIQVAWRRTIQEKKGSC

koff [1]: 0.077 s⁻¹
Kd [2]: 14.6 µM
B2: His6-MBP:CtermCNGC15c (domain or fragment)
chain: LIGNMQTYLQSITVRLEEWRVKRTDTEQWMHHRQLPPELRESIRKYNQYKWVATRGVEEEDLLKGLPLDLRREIKRHLCLELVRGVPLFDQMDERMLDAICERLKPALCTEGTYLVREGDPVNEMLFIIRGHLDSYTTNGGRDGFFNSCRIGPGDFCGEELLTWALDPRPSVILPSSTRTVKAFSEVEAFALIAEDLKFVASQFRRLHSKQLRHKFRFYSHQWRTWAACFIQAAWRRHKKRKEAAELRAKENLVAASEAENEIAKKYGKGFVVYGTRVARSTRKGVNMHSGTNSGVVSSLQKPTEPDFSDE

koff [1]: 0.77 s⁻¹
Kd [2]: 526 µM
B3: His6-MBP:CtermCNGC15a (domain or fragment)
chain: GNMQTYLQSTTIRLEEWRIRRTDTERWMHHRQLPHYLKENVRRHDQFRWVATRGVDEEAILRDLPVDLRRDIKRHLCLNLVRQVPLFDQMDDRMLDAICERLKPTLCTPGTCIVREGDPVDEMLFIVRGRLDSCTTNGGRTGFFNTCRIGSGDFCGEELLPWALDPRPTAVLPSSTRTVRAITEVEAFALIAEDLKFVAAQFRRLHSKQLRQTFRFYSHQWRTWAACFIQAAWFRYKRMKETNEVKEKENLMMMSNVKYYGNDDSQYFSAPLQVPKGSSYSMYSGKLVGSLRRGRSMRYGSELDMLGTLRKPIEPDFNDDGD
